Experimental data as given in CN114989291A (ZHEJIANG ANWEILUO DIAGNOSTIC TECH CO LTD, dated 2022).
“And” between values parts separate entries of the source, which are not always exact repeats. Equal values may be shown once. Read-outs that look alike come from different tables or passages of the source.

Columns and labels:
[1] = target: 重组的RBD抗原 (SARS-CoV-2 Spike糖蛋白的RBD区域) (SARS-CoV-2, UniProt P0DTC2 319-541)
[2] = target: T1, 全长SARS-CoV-2 S蛋白 (野生型, IVCAS 6.7512, GenBank ID: QHD43416.1) (SARS-CoV-2, UniProt P0DTC2 14-1273); assay: cell-based or functional assay
SARS-CoV-2真病毒的S蛋白 = SARS-CoV-2真病毒的S蛋白 (SARS-CoV-2, UniProt P0DTC2 14-1273); assay: cell-based or functional assay
[3] = target: T1, 全长SARS-CoV-2 S蛋白 (野生型, IVCAS 6.7512, …); assay: cell-based or functional assay; remark: listed apart in the source

B1: 抗SARS-CoV-2全人源化单克隆抗体1B3 (antibody, V domains shown)
VH: VQLVESGGGVVQPGRSLRLSCAASGFTFSSYAMHWVRQAPGKGLEWVAVISYDGSNKYYADSVKGRFTISRDNSKNTLYLQMNSLRAEDTAVYYCAKVAGGPYYYDSSGRDWYFDLWGRGTLVTVSA
VL: DIQMTQSPSSLSASVGDRVSITCRASQSISSFLNWFQQKPGKAPNLLIYAASSLESGVPSRFSGSGSGTDFTLTISSLQPEDFATYYCQQSYSAPPTFGQGTRLEIKR
With B1 the EC50 [1] was 0.0134 µg/mL, the “EC50, 假病毒细胞模型中和活性 (luciferase, ACE2-293T细胞)” value [2] was 25.6 nM and the “EC50, 真病毒感染的细胞模型中和活性 (Vero E6, 结晶紫细胞活率)” value (SARS-CoV-2真病毒的S蛋白) was 16.4 μg/ml and 109 nM. For the same binder, the “EC50, 假病毒细胞模型中和活性 (luciferase, ACE2-293T细胞)” value [3] was 3.86 µg/mL.
